Results: the RNAGym collection of RNA variant scans (doi:10.7554/elife.80360)

B1: Hairpin Ribozyme (parent)
chain: GUCCUCUUUCACGUGCGCGUGAAAGAGAGAAGUGAACCAGAGAAACACACGUUGUGGUAUAUUACCUGGUA

Variants of: B1
Experiment: self-cleavage, relative activity (ratio to wild type); higher = more cleavage; co-transcriptional

Point of comparison: GUCCUCUUUCUCUUGCGCGUGAAAGAGAGAAGUGAACCAGAGAAACACACGUUGUGGUAUAUUACCUGGUA [A11U G13U], self-cleavage 0.54. Against it:
- GUCCUCUUUCGCGUGCGCGUGAAAGAGAGAAGUGAACGAGAGAAACACACGUUGUGGUAUAUUACCUGGUA [A11G C38G] — lower, 0.188
- GUCCUCUUUCGCGUGCGCGUGAAAGAGAGAAGUGAACAAGAGAAACACACGUUGUGGUAUAUUACCUGGUA [A11G C38A] — lower, 0.213
- GUCCUCUUUCGCGUGCGCGUGAAAGAGAGAAGUGAACUAGAGAAACACACGUUGUGGUAUAUUACCUGGUA [A11G C38U] — lower, 0.432
- GUCCUCUUUCUCGUGCGCGUGAAACAGAGAAGUGAACCAGAGAAACACACGUUGUGGUAUAUUACCUGGUA [A11U G25C] — lower, 0.205
- GUCCUCUUUCUCGUGCGCGUGAAAGAGAGAAGUGAGCCAGAGAAACACACGUUGUGGUAUAUUACCUGGUA [A11U A36G] — higher, 0.7
- GUCCUCUUUCGCGUGCGCGUGAAAGAGAGAAGUGAACCAGAGAAACACACGUUGUGGUAUAUUACCUGUUA [A11G G69U] — lower, 0.215
- GUCCUCUUUCGCGUGCGCGUGAAAGAGAGAAGUGAACCAGAGAAACACACGUUGUGGUAUAUUAGCUGGUA [A11G C65G] — lower, 0.31
- GUCCUCUUUCUCGUGUGCGUGAAAGAGAGAAGUGAACCAGAGAAACACACGUUGUGGUAUAUUACCUGGUA [A11U C16U] — higher, 1.02
- GUCCUCUUUCUCGUGCGCGUGAAAGAGAGAUGUGAACCAGAGAAACACACGUUGUGGUAUAUUACCUGGUA [A11U A31U] — lower, 0.0898
- GUCCUCUUUCUCGUGCGCGUGAAAGAGAGAAGUGAACCAGAAAAACACACGUUGUGGUAUAUUACCUGGUA [A11U G42A] — lower, 0.136
- GUCCUCUUUCGCGUGCGCGUGAAAAAGAGAAGUGAACCAGAGAAACACACGUUGUGGUAUAUUACCUGGUA [A11G G25A] — lower, 0.43
- GUCCUCUUUCGCGUGCGCGUGAAAGAGAGAAGUGAACCAGAGAAACACACAUUGUGGUAUAUUACCUGGUA [A11G G51A] — higher, 0.93
- GUCCUCUUUCGCGUGCGCGUGAAAGAGAGAAGUGAACCAGAGAAACACACUUUGUGGUAUAUUACCUGGUA [A11G G51U] — higher, 0.713
- GUCCUCUUUCUCGUGCGCGUGAAAGAGAGAAGUGAACCAGAGAAACACUCGUUGUGGUAUAUUACCUGGUA [A11U A49U] — lower, 0.251
- GUCCUCUUUCUCGUGCGCGUGAAAGAGAGAAGUGAACCAGAGAAACACCCGUUGUGGUAUAUUACCUGGUA [A11U A49C] — lower, 0.24
- GUCCUCUUUCUCGUGCGCGUGAAAGAGAGAAGUGAACCAGAGACACACACGUUGUGGUAUAUUACCUGGUA [A11U A44C] — lower, 0.216
- GUCCUCUUUCUCGUGCGCGUGAAAGAGAGAAGUGAACUAGAGAAACACACGUUGUGGUAUAUUACCUGGUA [A11U C38U] — lower, 0.47
- GUCCUCUUUCUCGUGCGCGUGAAAGAGAGAAGUGAACCAGAGAAAGACACGUUGUGGUAUAUUACCUGGUA [A11U C46G] — lower, 0.0538
- GUCCUCUUUCUCGUGCGCGUGAAAGAGAGAAGUGAACCAGAGAAAAACACGUUGUGGUAUAUUACCUGGUA [A11U C46A] — lower, 0.16
- GUCCUCUUUCUCGUGCGCGUGAAAGAGAGAAGUGAACCAGUGAAACACACGUUGUGGUAUAUUACCUGGUA [A11U A41U] — higher, 1
- GUCCUCUUUCUCGUGCGCGUGAAAGAGAGAAGUGAACCAGCGAAACACACGUUGUGGUAUAUUACCUGGUA [A11U A41C] — higher, 1.01
- GUCCUCUUUCGCGUGCGGGUGAAAGAGAGAAGUGAACCAGAGAAACACACGUUGUGGUAUAUUACCUGGUA [A11G C18G] — higher, 0.816
- GUCCUCUUUCUCGUGCGCGUGAAGGAGAGAAGUGAACCAGAGAAACACACGUUGUGGUAUAUUACCUGGUA [A11U A24G] — higher, 0.813
- GUCCUCUUUCUCGUGCGCGUGAAAGAGAGAAGUGAACCAGAGAAACACACGUUGUGGUAUAUUACCUGGUG [A11U A71G] — higher, 0.977
- GUCCUCUUUCGCGUGCGCGUGAAAGAGAGAAGUGAAUCAGAGAAACACACGUUGUGGUAUAUUACCUGGUA [A11G C37U] — lower, 0.357
- GUCCUCUUUCGCGUGCGCGUGAAAGAGACAAGUGAACCAGAGAAACACACGUUGUGGUAUAUUACCUGGUA [A11G G29C] — lower, 0.177
- GUCCUCUUUCUCGUGCGCGUGAAAGAGAGAAGUUAACCAGAGAAACACACGUUGUGGUAUAUUACCUGGUA [A11U G34U] — higher, 1.36
- GUCCUCUUUCGCGUGCGCGUGAAAGAGAGAAGUGAACCAGAGAAACACACGGUGUGGUAUAUUACCUGGUA [A11G U52G] — higher, 0.681
- GUCCUCUUUCUCGUGCGCGUGAAAGAGAGAAGUGAACCAGAGAAACACACGUUGUGGUUUAUUACCUGGUA [A11U A59U] — lower, 0.256
- GUCCUCUUUCUCGUGCGCGUGAAAGAGAGAAGUGAACCAGAGAAACACACGUUGUGGUCUAUUACCUGGUA [A11U A59C] — lower, 0.137
- GUCCUCUUUCGCGUGCGCGUGAAAGAGAGAAGUGAACCAGAGAAACACACGUUGUGGUAUAUUACGUGGUA [A11G C66G] — lower, 0.173
- GUCCUCUUUCUCCUGCGCGUGAAAGAGAGAAGUGAACCAGAGAAACACACGUUGUGGUAUAUUACCUGGUA [A11U G13C] — higher, 0.737
- GUCCUCUUUCUCGUGCGCGUGAAAGAGAGAAGUGAACCAGAGAAACACACGUUGUGGUAUUUUACCUGGUA [A11U A61U] — lower, 0.247
- GUCCUCUUUCUCGUGCGCGUGAAAGAGAGAAGUGAACCAGAGAAACUCACGUUGUGGUAUAUUACCUGGUA [A11U A47U] — lower, 0.266
- GUCCUCUUUCUCGUGCGCGUGAAAGAGAGAAGUGAACCAGAGAAACACACGUUCUGGUAUAUUACCUGGUA [A11U G54C] — lower, 0.333
- GUCCUCUUUCGCGUGCGCGUGAAAGAGAGAAGAGAACCAGAGAAACACACGUUGUGGUAUAUUACCUGGUA [A11G U33A] — lower, 0.0249
- GUCCUCUUUCGCGUGCGCGUGAAAGAGAGAAGUGAACCAGAGAAACACACGUUGCGGUAUAUUACCUGGUA [A11G U55C] — lower, 0.105
